The source of these data is paper PMC10849647.

The target in the assay is pre-translocation ribosomal complex (without L27-tRNA labeling) (UniProt P0AG67). In words: co-sedimentation.
For the substance “M5, the F410C-Y533C variant of a cysteineless E. coli EF-G (enzyme)”, the ratio of co-sedimented EF-G to ribosomal S1 protein came to 0.15 EF-G per S1.
The figure for T48E mutant of M5 EF-G (enzyme) is 0.22 EF-G per S1; for T48V mutant of M5 EF-G (enzyme) it is 1 EF-G per S1.
